In one assay the target is GST-HSF2N96 (human) (UniProt Q03933). The experiment in a line: GST pull-down; 35S-labeled in vitro translated protein on GST-fusion glutathione-Sepharose, SDS-PAGE, autoradiography, BAS2000 quantification.
The target of the next assay is GST-HSF1N101 (human) (UniProt Q00613). The description is as above.
Chain of GST-HSF1N101 (human) (Q00613 101-529): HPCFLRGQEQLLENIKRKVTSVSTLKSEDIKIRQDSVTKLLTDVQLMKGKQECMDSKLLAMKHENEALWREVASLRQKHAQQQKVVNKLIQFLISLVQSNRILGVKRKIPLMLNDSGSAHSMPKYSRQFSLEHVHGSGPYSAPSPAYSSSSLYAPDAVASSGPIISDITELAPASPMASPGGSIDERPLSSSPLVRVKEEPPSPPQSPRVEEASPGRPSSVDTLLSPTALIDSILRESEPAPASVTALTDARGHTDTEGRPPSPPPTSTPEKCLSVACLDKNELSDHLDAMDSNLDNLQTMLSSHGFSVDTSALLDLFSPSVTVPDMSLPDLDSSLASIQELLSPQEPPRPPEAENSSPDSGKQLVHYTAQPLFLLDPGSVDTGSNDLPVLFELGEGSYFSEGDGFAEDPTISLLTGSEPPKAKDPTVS

Chain of GST-HSF2N96 (human) (Q03933 96-536): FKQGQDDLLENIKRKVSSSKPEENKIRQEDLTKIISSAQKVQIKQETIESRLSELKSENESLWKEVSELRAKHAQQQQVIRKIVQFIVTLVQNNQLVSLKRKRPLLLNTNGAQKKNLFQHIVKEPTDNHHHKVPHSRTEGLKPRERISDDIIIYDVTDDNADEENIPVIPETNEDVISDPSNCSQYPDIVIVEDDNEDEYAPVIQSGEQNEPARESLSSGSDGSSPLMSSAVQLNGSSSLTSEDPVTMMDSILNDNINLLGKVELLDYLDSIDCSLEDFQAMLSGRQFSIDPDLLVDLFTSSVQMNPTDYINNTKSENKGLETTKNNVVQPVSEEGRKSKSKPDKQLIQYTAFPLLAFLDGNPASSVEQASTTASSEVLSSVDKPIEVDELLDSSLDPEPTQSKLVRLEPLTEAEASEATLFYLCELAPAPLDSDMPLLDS

B1: HSF2 binding protein (HSF2BP), in vitro translated, 35S-methionine-labeled (protein)
chain: MGEAGAAEEACRHMGTKEEFVKVRKKDLERLTTEVMQIRDFLPRILNGEVLESFQKLKIVEKNLERKEQELEQLKMDCEHFKARLETVQADNIREKKEKLALRQQLNEAKQQLLQQAEYCTEMGAAACTLLWGVSSSEEVVKAILGGDKALKFFSITGQTMESFVKSLDGDVQELDSDESQFVFALAGIVTNVAAIACGREFLVNSSRVLLDTILQLLGDLKPGQCTKLKVLMLMSLYNVSINLKGLKYISESPGFIPLLWWLLSDPDAEVCLHVLRLVQSVVLEPEVFSKSASEFRSSLPLQRILAMSKSRNPRLQTAAQELLEDLRTLEHNV
modifications: 35S-methionine label
As to B1, the proportion of bound HSF2BP (% of the level of input) (% of the level of input) in the assay with GST-HSF2N96 (human) is 7.9; with GST-HSF1N101 (human), 8.5.

The record behind these values is patent US6485936.
